Experimental data reported in patent US20050214822A1 (RUTGERS THE STATE UNIVERSITY OF NEW JERSEY, published 2005).

Biological target: T1, tau (rat, UniProt P19332-5 2-432, limits assumed)
T1 construct: Cytoskeletal protein used as a specificity control in the cypin immunoprecipitates
Test: immunoprecipitation from rat brain extract with polyclonal anti-cypin antibody
Protocol: Cypin contains a region of homology to CRMP that binds directly to tubulin heterodimers (Akum et al., Nature Neurosci. 7:145 (2004)). To establish that cypin binds to tubulin, affinity chromatography was performed using a GST fusion of rat cypin immobilized on glutathione beads incubated with rat brain extract. The eluate was then assayed for the presence of tubulin. […] To assess whether this interaction occurs in vivo, rat brain extract was subjected to immunoprecipitation with preimmune serum or polyclonal antibody raised against cypin. Tubulin was found in the cypin immunoprecipitates (Id.). Very little tubulin was present when preimmune serum is used, representing nonspecific binding (Id.). Furthermore, no tau was detected in the cypin immunoprecipitates, supporting the idea that cypin binds specifically to tubulin and not all cytoskeletal proteins (Id.). In addition, cypin was found in tubulin immunoprecipitates.

T1 sequence (P19332 other isoform, or with tags, fused parts or gaps limits assumed): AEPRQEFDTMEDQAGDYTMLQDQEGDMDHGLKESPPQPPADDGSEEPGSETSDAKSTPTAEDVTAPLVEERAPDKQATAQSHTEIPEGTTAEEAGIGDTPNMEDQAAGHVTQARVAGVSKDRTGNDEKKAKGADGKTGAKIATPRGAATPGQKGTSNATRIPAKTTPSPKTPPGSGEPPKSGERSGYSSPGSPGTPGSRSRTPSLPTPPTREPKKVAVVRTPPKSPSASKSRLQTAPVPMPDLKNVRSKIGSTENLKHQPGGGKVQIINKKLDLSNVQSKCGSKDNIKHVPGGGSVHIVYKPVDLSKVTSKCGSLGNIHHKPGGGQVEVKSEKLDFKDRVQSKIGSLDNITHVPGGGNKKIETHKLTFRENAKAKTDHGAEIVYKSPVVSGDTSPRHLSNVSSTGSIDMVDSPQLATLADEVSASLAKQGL

B1: cypin in rat brain extract (enzyme)
chain: MCAARTPQLALIFRGTFVHSTWTCPMEVLRDHLLGVSDSGKIVFLEESSQQEKLAKEWCFKPCEIRELSHHEFFMPGLVDTHIHAPQYAFAGSNVDLPLLDWLNKYTFPTEKRFQSTDVAEEVYTRVVRRTLKNGTTTACYFGTIHTDSSLILAEITDKFGQRAFVGKVCMDLNNTVPEYKETTEESVKETERFVSEMLQKNYSRVKPIVTPRFSLSCTETLMSELGNIAKTHDLYIQSHISENREEIEAVKSLYPGYKNYTDVYDKNNLLTNKTVMAHGCYLSEEELNVFSERGASIAHCPNSNLSLSSGLLNVLDVLKHKVKIGLGTDVAGGYSYSMLDAIRRAVMVSNVLLINKVNEKSLTLKEVFRLATLGGSQALGLDREIGNFEVGKDFDALLINPRASDSPIDLFCGDFVGDISEAVIQKFLYLGDDRNIEEVYVGGKQVVPFSSSV
notes: Endogenous cypin immunoprecipitated from rat brain extract with a polyclonal antibody raised against cypin; also called endogenous cypin
binding result: no binding
